B1: Refmab #4 (antibody, human IgG1, V domains shown)
VH: QVQLVQSGAEVKKPGESVKVSCKASGYTFTNYGMNWVKQAPGQGLEWMGWINTYTGEPTYADKFQGRVTMTTDTSTSTAYMEIRNLGGDDTAVYYCARWSWSDGYYVYFDYWGQGTSVTVSS
VL: DIVMTQSPDSLTVSLGERTTINCKSSQSVLDSSTNKNSLAWYQQKPGQPPKLLLSWASTRESGIPDRFSGSGSGTDFTLTIDSPQPEDSATYYCQQSAHFPITFGQGTRLEIK
notes: Tested in IgG format; human IgG1 Fc silent (PG-LALA)
B2: Refmab #6 (antibody, human IgG1, V domains shown)
VH: QVQLQQPGAEVVKPGASVKMSCKASGYTFTSYYIHWIKQTPGQGLEWVGVIYPGNDDISYNQKFQGKATLTADKSSTTAYMQLSSLTSEDSAVYYCAREVRLRYFDVWGQGTTVTVSS
VL: EIVLTQSPGSLAVSPGERVTMSCKSSQSVFFSSSQKNYLAWYQQIPGQSPRLLIYWASTRESGVPDRFTGSGSGTDFTLTISSVQPEDLAIYYCHQYLSSRTFGQGTKLEIK
B3: Refmab #1 (antibody, human IgG1, V domains shown)
VH: EVQLVQSGAEVKKPGSSVKVSCKASGYTITDSNIHWVRQAPGQSLEWIGYIYPYNGGTDYNQKFKNRATLTVDNPTNTAYMELSSLRSEDTAFYYCVNGNPWLAYWGQGTLVTVSS
VL: DIQLTQSPSTLSASVGDRVTITCRASESLDNYGIRFLTWFQQKPGKAPKLLMYAASNQGSGVPSRFSGSGSGTEFTLTISSLQPDDFATYYCQQTKEVPWSFGQGTKVEVK
notes: also called hP67.6; Absolute Antibody Cat. No. Ab00283-10.0
B4: Refmab #3 (antibody, human IgG1, V domains shown)
VH: QVQLVQSGAEVKKPGSSVKVSCKASGYTFTDYNMHWVRQAPGQGLEWIGYIYPYNGGTGYNQKFKSKATITADESTNTAYMELSSLRSEDTAVYYCARGRPAMDYWGQGTLVTVSS
VL: DIQMTQSPSSLSASVGDRVTITCRASESVDNYGISFMNWFQQKPGKAPKLLIYAASNQGSGVPSRFSGSGSGTDFTLTISSLQPDDFATYYCQQSKEVPWTFGQGTKVEIK

How the values were obtained:
human CD33 variant I47W = human CD33 variant I47W (human, UniProt P20138 18-364); assay: flow cytometry, IgG on cells expressing the mutant
human CD33 variant I47W, sequence (P20138 18-364 I47W limits assumed): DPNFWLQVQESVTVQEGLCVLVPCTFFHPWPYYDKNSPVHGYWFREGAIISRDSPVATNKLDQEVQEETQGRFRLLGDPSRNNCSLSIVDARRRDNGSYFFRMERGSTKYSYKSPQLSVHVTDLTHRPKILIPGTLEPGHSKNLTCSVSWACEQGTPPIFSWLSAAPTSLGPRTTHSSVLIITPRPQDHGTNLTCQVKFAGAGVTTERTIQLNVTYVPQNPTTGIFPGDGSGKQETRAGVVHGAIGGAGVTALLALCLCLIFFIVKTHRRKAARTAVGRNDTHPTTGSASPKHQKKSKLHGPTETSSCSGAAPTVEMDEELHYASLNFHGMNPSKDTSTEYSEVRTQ
Protocol: (§1) An alanine scan on human CD33 was performed to the determine the residues on CD33 that are involved in binding to the antibodies investigated. […] Briefly, a mutation library of CD33 was created by high-throughput, site-directed mutagenesis. Each residue was individually mutated to alanine, with alanine codons mutated to serine. The mutant library was arrayed in 384-well microplates and transiently transfected into HEK293-T. Following transfection, cells were incubated with the indicated antibodies (IgG or Fab) at concentrations pre-determined using an independent immunofluorescence titration curve on wild type CD33. […] Binding of each antibody to each mutant clone was determined in duplicates. For each point, background fluorescence was subtracted from the raw data, which were then normalized to antibody reactivity with wild type CD33.
(§2) Antibodies were screened for binding to the human CD33 variants in IgG format. […] For each mutation, background fluorescence was subtracted from the raw data, which were then normalized to antibody reactivity with wild-type CD33.

human CD33 variant Y50V = human CD33 variant Y50V (human, UniProt P20138 18-364); assay: flow cytometry, IgG on cells expressing the mutant
human CD33 variant Y50V, sequence (P20138 18-364 Y50V limits assumed): as the sequence (P20138 18-364 I47W limits assumed) above, with W30I, Y33V counted along it
Protocol: as §1, §2

human CD33 variant K52G = human CD33 variant K52G (human, UniProt P20138 18-364); assay: flow cytometry, IgG on cells expressing the mutant
human CD33 variant K52G, sequence (P20138 18-364 K52G limits assumed): as the sequence (P20138 18-364 I47W limits assumed) above, with W30I, K35G counted along it
Protocol: as §1, §2

human CD33 variant Y50H = human CD33 variant Y50H (human, UniProt P20138 18-364); assay: flow cytometry, IgG on cells expressing the mutant
human CD33 variant Y50H, sequence (P20138 18-364 Y50H limits assumed): as the sequence (P20138 18-364 I47W limits assumed) above, with W30I, Y33H counted along it
Protocol: as §1, §2

human CD33 variant Y127R = human CD33 variant Y127R (human, UniProt P20138 18-364); assay: flow cytometry, IgG on cells expressing the mutant
human CD33 variant Y127R, sequence (P20138 18-364 Y127R limits assumed): as the sequence (P20138 18-364 I47W limits assumed) above, with W30I, Y110R counted along it
Protocol: as §1, §2

human CD33 variant P48I = human CD33 variant P48I (human, UniProt P20138 18-364); assay: flow cytometry, IgG on cells expressing the mutant
human CD33 variant P48I, sequence (P20138 18-364 P48I limits assumed): as the sequence (P20138 18-364 I47W limits assumed) above, with W30I, P31I counted along it
Protocol: as §1, §2

human CD33 variant M120V = human CD33 variant M120V (human, UniProt P20138 18-364); assay: flow cytometry, IgG on cells expressing the mutant
human CD33 variant M120V, sequence (P20138 18-364 M120V limits assumed): as the sequence (P20138 18-364 I47W limits assumed) above, with W30I, M103V counted along it
Protocol: as §1, §2

human CD33 variant I47P = human CD33 variant I47P (human, UniProt P20138 18-364); assay: flow cytometry, IgG on cells expressing the mutant
human CD33 variant I47P, sequence (P20138 18-364 I47P limits assumed): as the sequence (P20138 18-364 I47W limits assumed) above, with W30P counted along it
Protocol: as §1, §2

human CD33 variant K52L = human CD33 variant K52L (human, UniProt P20138 18-364); assay: flow cytometry, IgG on cells expressing the mutant
human CD33 variant K52L, sequence (P20138 18-364 K52L limits assumed): as the sequence (P20138 18-364 I47W limits assumed) above, with W30I, K35L counted along it
Protocol: as §1, §2

human CD33 variant Y50D = human CD33 variant Y50D (human, UniProt P20138 18-364); assay: flow cytometry, IgG on cells expressing the mutant
human CD33 variant Y50D, sequence (P20138 18-364 Y50D limits assumed): as the sequence (P20138 18-364 I47W limits assumed) above, with W30I, Y33D counted along it
Protocol: as §1, §2

human CD33 variant P48W = human CD33 variant P48W (human, UniProt P20138 18-364); assay: flow cytometry, IgG on cells expressing the mutant
human CD33 variant P48W, sequence (P20138 18-364 P48W limits assumed): as the sequence (P20138 18-364 I47W limits assumed) above, with W30I, P31W counted along it
Protocol: as §1, §2

human CD33 variant P48H = human CD33 variant P48H (human, UniProt P20138 18-364); assay: flow cytometry, IgG on cells expressing the mutant
human CD33 variant P48H, sequence (P20138 18-364 P48H limits assumed): as the sequence (P20138 18-364 I47W limits assumed) above, with W30I, P31H counted along it
Protocol: as §1, §2

human CD33 variant D51Y = human CD33 variant D51Y (human, UniProt P20138 18-364); assay: flow cytometry, IgG on cells expressing the mutant
human CD33 variant D51Y, sequence (P20138 18-364 D51Y limits assumed): as the sequence (P20138 18-364 I47W limits assumed) above, with W30I, D34Y counted along it
Protocol: as §1, §2

human CD33 variant Y49T = human CD33 variant Y49T (human, UniProt P20138 18-364); assay: flow cytometry, IgG on cells expressing the mutant
human CD33 variant Y49T, sequence (P20138 18-364 Y49T limits assumed): as the sequence (P20138 18-364 I47W limits assumed) above, with W30I, Y32T counted along it
Protocol: as §1, §2

human CD33 W22T = human CD33 W22T (human, UniProt P20138 18-364); assay: flow cytometry, transfected cells
human CD33 W22T, sequence (P20138 18-364 W22T limits assumed): as the sequence (P20138 18-364 I47W limits assumed) above, with W5T, W30I counted along it

human CD33 W22E = human CD33 W22E (human, UniProt P20138 18-364); assay: flow cytometry, transfected cells
human CD33 W22E, sequence (P20138 18-364 W22E limits assumed): as the sequence (P20138 18-364 I47W limits assumed) above, with W5E, W30I counted along it

human CD33 W22R = human CD33 W22R (human, UniProt P20138 18-364); assay: flow cytometry, transfected cells
human CD33 W22R, sequence (P20138 18-364 W22R limits assumed): as the sequence (P20138 18-364 I47W limits assumed) above, with W5R, W30I counted along it

human CD33 W22P = human CD33 W22P (human, UniProt P20138 18-364); assay: flow cytometry, transfected cells
human CD33 W22P, sequence (P20138 18-364 W22P limits assumed): as the sequence (P20138 18-364 I47W limits assumed) above, with W5P, W30I counted along it

Binder | Mean % WT Binding (human CD33 variant I47W) | Mean % WT Binding (human CD33 variant Y50V) | Mean % WT Binding (human CD33 variant K52G) | Mean % WT Binding (human CD33 variant Y50H) | Mean % WT Binding (human CD33 variant Y127R) | Mean % WT Binding (human CD33 variant P48I) | Mean % WT Binding (human CD33 variant M120V) | Mean % WT Binding (human CD33 variant I47P) | Mean % WT Binding (human CD33 variant K52L) | Mean % WT Binding (human CD33 variant Y50D) | Mean % WT Binding (human CD33 variant P48W) | Mean % WT Binding (human CD33 variant P48H) | Mean % WT Binding (human CD33 variant D51Y) | Mean % WT Binding (human CD33 variant Y49T) | binding result (human CD33 W22T) | binding result (human CD33 W22E) | binding result (human CD33 W22R) | binding result (human CD33 W22P)
B1 | 86.8 % of WT | 1.7 % of WT | 69.5 % of WT | 2 % of WT | 116 % of WT | 31.9 % of WT | 100 % of WT | 49 % of WT | 88.1 % of WT | 0.9 % of WT | 1.3 % of WT | 2.9 % of WT | 61.9 % of WT | 2.8 % of WT |  |  |  | 
B2 |  |  |  |  |  |  |  |  |  |  |  |  |  |  | no binding (tested: below 20%) | no binding (tested: below 20%) | no binding (tested: below 20%) | no binding (tested: below 20%)
B3 |  |  |  |  |  |  |  |  |  |  |  |  |  |  | no binding (tested: below 20%) | no binding (tested: below 20%) | no binding (tested: below 20%) | no binding (tested: below 20%)
B4 |  |  |  |  |  |  |  |  |  |  |  |  |  |  | no binding (tested: below 20%) | no binding (tested: below 20%) | no binding (tested: below 20%) | no binding (tested: below 20%)
